Measured values taken from PMC4678814 (Nucleic Acids Research, 2015).
Each block holds one molecule with its values, some of them ahead of it.

Columns and labels:
[1] = target: GST-tagged ChYtm1 (Chaetomium thermophilum) (UniProt G0SFB5); test: BLI
[2] = target: T1, 6xHis-tagged ChYtm1 (Ytm1 from Chaetomium thermophilum) (Chaetomium thermophilum, UniProt G0SFB5 1-495); test: ITC
T1 sequence (looked up): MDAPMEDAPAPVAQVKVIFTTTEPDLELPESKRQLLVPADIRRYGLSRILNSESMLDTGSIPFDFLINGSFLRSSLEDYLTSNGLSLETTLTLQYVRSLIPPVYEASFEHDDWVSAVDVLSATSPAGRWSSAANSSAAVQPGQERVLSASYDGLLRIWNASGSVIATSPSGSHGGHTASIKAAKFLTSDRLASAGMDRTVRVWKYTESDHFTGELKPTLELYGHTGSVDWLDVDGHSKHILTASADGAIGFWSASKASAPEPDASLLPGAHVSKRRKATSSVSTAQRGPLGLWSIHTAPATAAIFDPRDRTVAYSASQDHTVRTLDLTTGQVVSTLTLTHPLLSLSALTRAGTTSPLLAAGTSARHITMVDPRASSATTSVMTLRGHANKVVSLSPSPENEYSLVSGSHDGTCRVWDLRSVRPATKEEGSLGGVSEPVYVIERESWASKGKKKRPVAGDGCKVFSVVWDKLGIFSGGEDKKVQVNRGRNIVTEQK

Kd [1]: 7 nM
Molecule: ChErb1 R486A mutant (from UniProt G0SCK6 1-801) (natural protein)

fold loss of affinity (KD) against the ChErb1-ChYtm1 interaction [1]: 100 fold
Molecule: 6xHis-ChErb1[R486E], full-length (from UniProt G0SCK6 1-801) (natural protein)

Kd [2]: ~9 nM
B1: 6xHis-ChErb1_(432–801) (β-propeller domain of ChErb1) (domain or fragment, Chaetomium thermophilum, UniProt G0SCK6 432-801, looked up)
chain: LPSPDELKPFPTVQQTIFRGHEGRVRSVAIDPTGVALATGGDDGTVRVWELLTGRQVWSVKLNGDEAVNTVRWRPTKDTFILAAAAGEDIFLMIPTHPSVTPALDQASRDILNAGFGHATNGKQQANLPPGKEPPGKWARPGTRLEDEGVLLRITVRSTIKAISWHRRGDHFATVSPSGQRSSVAIHTLSKHLTQIPFRKLNGLAQTASFHPLRPLFFVATQRSIRCYDLQKLELVKIVQPGAKWISSFDVHPGGDNLVVGSYDKRLLWHDLDLSNRPYKTMRFHTEAIRAVRFHKGGLPLFADASDDGSLQIFHGKVPNDQLENPTIVPVKMLKGHKVVNKLGVLDIDWHPREPWCVSAGADGTARLWM
